# Data reported in patent publication US20110064670A1, “METHOD TO IDENTIFY A PATIENT WITH AN INCREASED LIKELIHOOD OF RESPONDING TO AN ANTI-CANCER AGENT” (Genentech, Inc., priority 2009, published 2011).
# System: non-tumor bearing mice
# Experiment: Lymph pulsation frequency assay in non-tumor bearing mice
# Type: in vivo, mouse
# Settings: acute injection, n=6 animals/group (FIG. 6B)
# Method: Female Balb-c nude mice from Charles River Laboratory were used at 6-8 weeks of age. To establish baseline pulsation frequency and lymph node loading rates we imaged non-tumor bearing mice. In some cases mice were longitudinally imaged for pulsation, i.e., the same mouse was imaged daily over a 7-day period. Mice were anesthetized with 2% Isoflurane and maintained at 37° C. throughout experiments. A PulseOx probe was attached to the thigh (opposing injection site) to monitor heart rate before running pulsation assays.
# For all experiments fluorescent dye injections were performed with 5 mg AlexaFluor680 conjugated to dextran 70 kd (MolecularProbes) in 1 ml sterile PBS. […]
# Epi-fluorescence Microscopy Pulsatile flow activity was observed using an epifluorescence microscope (Prairie Technologies) equipped with a Cy5.5 Red filter set (Chroma), Halogen light source (ExFo Excite Series 120), 4× objective lens (Olympus) and a charge coupled device (CCD) camera (S97827, Olympus). […] Pulsation and heart rates were monitored (PulseOx) for stability for 10 minutes before video capture. […]
# Digital videos (5 minutes) of pulsation were acquired with PictureFrame software (Optronics) using time lapse settings (282 ms exposure, no inter-frame delay, 5 minutes total acquisition time). Data was analyzed off-line from recorded time lapse videos. […]
molecule,measurement,value
"recombinant VEGF-C protein: recombinant VEGF-C protein injected acutely in non-tumor bearing mice (protein, UniProt P97953 108-223, looked up) Vascular endothelial growth …: AHYNTEILKSIDNEWRKTQCMPREVCIDVGKEFGAATNTFFKPPCVSVYRCGGCCNSEGLQCMNTSTGYLSKTLFEITVPLSQGPKPVTISFANHTSCRCMSKLDVYRQVHSIIRR",lymph pulsation frequency,does not result in any significant change
